Assay results: publication PMC11879619
Where no end group is shown, it is not given here.

Key:
[1] = biological target: He-PDFR-A, long splice variant of the pigment-dispersing factor receptor of Hypsibius exemplaris (Hypsibius exemplaris)
[2] = biological target: He-PDFR-B, short splice variant of the pigment-dispersing factor receptor of Hypsibius exemplaris (Hypsibius exemplaris)

## NAEVLNSLIGLPRLLKDK-NH2 [He-PDF-1, pigment-dispersing factor 1 of Hypsibius exemplaris (synthetic mature peptide)]
[1]
  EC50 of the cAMP response (BRET ratio change of the Epac-L sensor) of HEK293T cells transfected with He-pdfr-A, synthetic peptide at 10^-11 to 10^-5 M: 56 nM
[2]
  EC50 of the cAMP response (BRET ratio change of the Epac-L sensor) of HEK293T cells transfected with He-pdfr-B, synthetic peptide at 10^-11 to 10^-5 M: 21 nM

## NSEILNTIIGLPNKLRQR-NH2 [He-PDF-2, pigment-dispersing factor 2 of Hypsibius exemplaris (synthetic mature peptide)]
[1]
  EC50 of the cAMP response (BRET ratio change of the Epac-L sensor) of HEK293T cells transfected with He-pdfr-A, synthetic peptide at 10^-11 to 10^-5 M: 34 nM
[2]
  EC50 of the cAMP response (BRET ratio change of the Epac-L sensor) of HEK293T cells transfected with He-pdfr-B, synthetic peptide at 10^-11 to 10^-5 M: 11 nM

## NSEILNTLIGLPNKLKQR-NH2 [He-PDF-3, pigment-dispersing factor 3 of Hypsibius exemplaris (synthetic mature peptide)]
[1]
  EC50 of the cAMP response (BRET ratio change of the Epac-L sensor) of HEK293T cells transfected with He-pdfr-A, synthetic peptide at 10^-11 to 10^-5 M: 18 nM
[2]
  EC50 of the cAMP response (BRET ratio change of the Epac-L sensor) of HEK293T cells transfected with He-pdfr-B, synthetic peptide at 10^-11 to 10^-5 M: 1.6 nM
